The values that follow come from patent publication US20050069869A1 (UNIVERSITY OF MASSACHUSETTS, published 2005).

Test [1] has as its target SARS-CoV S protein of the virus (Urbani strain; virions and infected Vero cell extracts) (SARS-CoV, UniProt P59594 15-1190). The test can be described thus: cell-based or functional assay.
The target in test [2] is S(590), N-terminal 590 amino acids of the SARS-CoV S protein (SARS-CoV, UniProt P59594 15-590). The test can be described thus: FACS; inhibition of myc-tagged S(590) binding to Vero E6 cells. For orientation: In flow cytometry, cells or beads pass a laser one at a time.
The target in test [3] is S(1255), full length S protein with transmembrane and cytoplasmic domains, on transfected HEK 293 cells (SARS-CoV, UniProt P59594 15-1190). Kind of test: FACS on HEK 293 cells transfected with S(1255); given as ED50.
The target in test [4] is T1, S(130), amino acids 1-130 of the SARS-CoV S protein (SARS-CoV, UniProt P59594 15-130).
T1 sequence: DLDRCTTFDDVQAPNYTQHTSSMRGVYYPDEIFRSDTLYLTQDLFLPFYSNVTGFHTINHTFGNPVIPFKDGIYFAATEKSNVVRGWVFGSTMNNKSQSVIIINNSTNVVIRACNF
The test can be described thus: immunoprecipitation from culture supernatant, Western blot with anti-His6.

For test [5], the target named is T2, S(150), amino acids 1-150 of the SARS-CoV S protein (SARS-CoV, UniProt P59594 15-150).
T2 sequence: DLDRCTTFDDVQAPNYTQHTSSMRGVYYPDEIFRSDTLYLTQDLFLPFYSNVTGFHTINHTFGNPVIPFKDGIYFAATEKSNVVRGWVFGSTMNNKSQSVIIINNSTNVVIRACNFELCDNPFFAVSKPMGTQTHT
The test is described as above.

Test [6] addresses T3, S(170), amino acids 1-170 of the SARS-CoV S protein (SARS-CoV, UniProt P59594 15-170).
T3 sequence: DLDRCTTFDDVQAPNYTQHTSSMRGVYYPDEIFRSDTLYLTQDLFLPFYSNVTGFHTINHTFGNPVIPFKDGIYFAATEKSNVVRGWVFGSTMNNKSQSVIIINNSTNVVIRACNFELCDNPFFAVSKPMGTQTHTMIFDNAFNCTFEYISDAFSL
The test is described as above.

In test [7] the target is T4, S(269), amino acids 1-269 of the SARS-CoV S protein (SARS-CoV, UniProt P59594 15-269).
T4 sequence: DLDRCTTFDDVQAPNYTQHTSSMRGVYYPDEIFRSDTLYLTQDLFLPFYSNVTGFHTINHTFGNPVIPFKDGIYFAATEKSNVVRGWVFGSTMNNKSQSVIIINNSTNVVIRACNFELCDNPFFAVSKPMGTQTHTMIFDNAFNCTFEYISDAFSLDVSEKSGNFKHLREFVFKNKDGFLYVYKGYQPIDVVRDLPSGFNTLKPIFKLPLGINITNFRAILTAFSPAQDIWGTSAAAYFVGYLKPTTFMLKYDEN
The test is described as above.

In test [8] the target is S(470), amino acids 1-470 of the SARS-CoV S protein (SARS-CoV, UniProt P59594 15-470). The test is described as above.
Test [9] concerns the target S(490), amino acids 1-490 of the SARS-CoV S protein (SARS-CoV, UniProt P59594 15-490). The test is described as above.

B1: human monoclonal antibody 201.2 (antibody, V domains shown)
VH: EVQLVQSGGGLVHPGGSLRLSCAGSGFTFSSYDMHWVRQAPGKGLEWVSVVGTGDGTYYADSVKGRFTISRDNAKNSLYLQMNSLRAEDMAVYYCARDQWWGSDYWGQGTLVTVSS
VL: EIVLTQSPATLSLSPGERATLSCRASQSVSSYLAWYQQKPGQAPRLLIYDASNRATGIPARFSGSGSGTDFTLTISSLEPEDFAVYYCQQRSNWPLTFGGGTKVEIK
notes: also called 508-201; 7-508-201
For orientation: IC50 means the concentration that inhibits the measured activity by half. High values mean a need for much substance, low ones inhibition by little substance. As usually defined, the EC50 is the midpoint of the concentration-response curve. The low end stands for higher potency in that assay, the high end for lower potency in that assay. Regarding B1, the “Viral Neut. in vitro (IC50, nM)” value in test [1] stood at 0.7 nM. In test [2], the IC50 is 2 nM. Besides, a half-maximal effect in [3] (EC50) was put at 6 nM. Besides, the binding result in test [4], in test [5], in test [6], in [7], in test [8] and in test [9] was “no binding” each time.
